Molecular target: Human CD52 (human) (UniProt P31358)
Assay: cell-based or functional assay

Human CD52 (human), sequence (P31358 25-61 limits assumed): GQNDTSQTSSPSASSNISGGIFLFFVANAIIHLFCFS

Substance: alemtuzumab (antibody)
- CDC killing of human HIP iECs (CD52) with ABO-matched allogeneic serum (XCelligence): 0.001 µg/ml
- CDC killing of mouse B6 HIP iECs (CD52) with syngeneic B6 serum (XCelligence): 0.0001 µg/mL

Source: patent US20240091274A1
